Measured values taken from paper PMC7923362.
* marks the point of attachment. Dnp = O=[N+]([O-])c1ccc(*)c([N+](=O)[O-])c1

Target: SARS-CoV-2 main protease (M^pro), tag-free, native N and C termini (SARS-CoV-2)

{MCA}-AVLQSGFRK(Dnp)K-NH2 [FRET substrate MCA-AVLQSGFR-Lys(Dnp)-Lys-NH2]
Michaelis constant (Km) of the FRET-based enzymatic assay; M^pro 100 nM, substrate at various concentrations, Lineweaver-Burk plot: 1.41 µM
